From PMC10587035 (Discover Mental Health, 2023)

Legend:
[1] = biological target: T1, human OT-R (Homo sapiens, UniProt P30559); test: In vitro oxytocin receptor activation assay (intracellular Ca2+ mobilization, Fluo-4); format: cell-based; details: HEK293 cells expressing human OT-R; ATP 10^-4 M as positive control; IgG applied without OT
T1 construct: expressed in transfected cells; host or cells: HEK293, stably transfected
T1 sequence (P30559 1-389): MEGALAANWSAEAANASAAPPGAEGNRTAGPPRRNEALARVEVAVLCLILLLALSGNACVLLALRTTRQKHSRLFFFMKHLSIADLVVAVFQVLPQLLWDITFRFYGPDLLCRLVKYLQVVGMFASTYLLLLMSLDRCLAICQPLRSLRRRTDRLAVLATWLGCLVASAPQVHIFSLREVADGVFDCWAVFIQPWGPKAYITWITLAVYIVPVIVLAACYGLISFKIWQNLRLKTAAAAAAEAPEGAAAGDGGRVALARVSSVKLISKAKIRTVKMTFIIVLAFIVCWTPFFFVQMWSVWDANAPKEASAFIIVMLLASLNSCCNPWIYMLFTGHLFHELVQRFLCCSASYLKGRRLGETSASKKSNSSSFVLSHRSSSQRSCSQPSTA
Procedure: Cells were grown on DMEM medium (Gibco, Thermo Fisher Scientific) with 10% FBS and 0.6% Penicillin/Streptomycin (Merck). To prepare assay plates, cell line was treated with 0.25% trypsin-EDTA (Gibco), cell pellet was resuspended in medium and filed in a flat clear bottom black 96-microwell plate (Greiner Bio-One, Les Ulis, France) at a rate of 50000 cells per well, which was coated during 1 h at 37°C with 100µg/mL of Poly-L-Lysin (Merck) and 1 h with 100µg/mL of Collagen I (Institut de Biotechnologie Jacques Boy, Reims, France). The microplate was incubated 24 hours at 37°C with 5% of CO2.
Briefly, confluent cells were incubated 45 min at 37°C with 2 µM Fluo-4 acetoxymethyl ester (AM) calcium dye (Life Technologies, Villebon-sur-Yvette, France) in complete HBSS, washed twice and incubated in 200 µL of the same complete medium at 37°C for 20 min. Fluorescence was recorded using a Flexstation III fluorescence microplate reader system (Molecular Devices, Saint-Grégoire, France) during 180 s with an excitation wavelength of 485 nm, an emission wavelength of 525 nm and a cutoff filter of 515 nm. […]
Ca^2+ releasing kinetics were determined, as well as area under curve, the maximal fluorescence peak and the time for which this maximum is reached. Fluorescence data were calculated as mean +/- SEM.

[2] = biological target: green-fluorescence protein (GFP)-labeled human OT-R in HEK293 cells (human) (UniProt P30559)
[3] = biological target: human oxytocin receptor, stably transfected in HEK293 cells (human) (UniProt P30559)

oxytocin, sequence (P01178 whole entry, looked up): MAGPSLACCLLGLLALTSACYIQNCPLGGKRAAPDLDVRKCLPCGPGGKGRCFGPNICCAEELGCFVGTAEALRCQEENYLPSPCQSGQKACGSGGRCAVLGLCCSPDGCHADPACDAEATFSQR

| intracellular Ca2+ mobilization (result in words) [1] | half-time internalization rate of GFP-labeled OT-R (membrane/cytoplasmic fluorescence, exponential decay model), OT alone [2] [min] | half-time internalization rate of GFP-labeled OT-R (membrane/cytoplasmic fluorescence, exponential decay model), OT in immune complex with plasma IgG of aggressors [2] [min] | half-time internalization rate of GFP-labeled OT-R (membrane/cytoplasmic fluorescence, exponential decay model), OT in immune complex with plasma IgG of controls [2] [min] | EC50 of Ca2+ release in OT-R expressing cells, OT dose-response with OT preincubated with plasma IgG of aggressors (OT/IgG IC, fixed IgG 840 nM) [3] [nM] | EC50 of Ca2+ release in OT-R expressing cells, OT dose-response with OT preincubated with plasma IgG of controls (OT/IgG IC, fixed IgG 840 nM) [3] [nM] | intracellular Ca2+ mobilization in HEK293 cells stably transfected with human OT-R, OT alone at 10^-7 M (fold over basal levels) [3] | Compound |
| --- | --- | --- | --- | --- | --- | --- | --- |
| mild increase | – | – | – | – | – | – | Nc1ncnc2c1ncn2[C@@H]1O[C@H](COP(=O)(O)OP(=O)(O)OP(=O)(O)O)[C@@H](O)[C@H]1O [ATP, adenosine triphosphate] |
| – | 16.7 | 23.3 | 6.4 | 6.1 | 3.1 | 3.5 | oxytocin (from UniProt P01178 20-28) (peptide) |
